Tests used:
Experiment in all cases: cell-based or functional assay
[1] = target: T1, oxMIF on the cell surface of U937 human monocytic cells (human, UniProt P14174 2-115, oxidised isoform (oxMIF); residues not stated)
[2] = target: T1, oxMIF on the cell surface of U937 human …; remark: listed apart in the source
[3] = target: T1, oxMIF on the cell surface of U937 human …; remark: listed apart in the source

T1 sequence (P14174 2-115): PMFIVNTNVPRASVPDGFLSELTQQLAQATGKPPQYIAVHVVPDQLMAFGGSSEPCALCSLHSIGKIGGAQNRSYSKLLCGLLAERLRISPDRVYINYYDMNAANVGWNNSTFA

B1: anti-oxMIF antibody RAM9 (antibody, human IgG1, kappa, V domains shown)
VH: EVQLLESGGGLVQPGGSLRLSCAASGFTFSIYSMNWVRQAPGKGLEWVSSIGSSGGTTYYADSVKGRFTISRDNSKNTLYLQMNSLRAEDTAVYYCAGSQWLYGMDVWGQGTTVTVSS
VL: DIQMTQSPSSLSASVGDRVTITCRSSQRIMTYLNWYQQKPGKAPKLLIFVASHSQSGVPSRFRGSGSETDFTLTISGLQPEDSATYYCQQSFWTPLTFGGGTKVEIKR
Which “IC50 of inhibition of random migration (chemokinesis) of U937 cells, Transwell, antibody in lower chamber; 25 experiments (38 plates)” value [1] does the source give for B1 here?
Its value is 0.8 nM.

What about the “IC50 of inhibition of random migration (chemokinesis) of U937 cells, Transwell, antibody in lower chamber; duplicate plates (26 plates from 13 experiments)” value [1] of the same binder?
The value was 0.8 nM.

And the “IC 50 of migration inhibition of U937 cells, antibody in the inserts (upper chamber), plate 2” value [2]?
Its value is 1.1 nM.

And the “IC50 (inhibition of cell migration, chemokinesis assay, MI against log RAM9)” value [3]?
Its value is 0.8 nM.

Reference: US20150309012A1 (BAXTER INTERNATIONAL, published 2015)
